For experiment [1], the target named is FFL_001. The experiment is described as follows: ELISA; printed as ng/uL.
In a further experiment the target is RPM. Description: ELISA; printed as ng/uL.
Experiment [2] deals with FFL_001. The experiment is described as follows: SPR.

Substitutions are numbered along the chain they refer to.

B1: 13A8 (antibody, V domains shown)
VH: QVQLVESGGGVVQPGKSLRLSCAASGYIFSSYDMHWVRQAPGKGLEWVAVISFDGTTQHYADSVRGRFTVSRDNSQNTVFLQMNSLRPEDTAVYYCVKEYVIVSTFFDYWGQGTLVTVSS
VL: DIVMTQSPSSLSASVGDRVTITCRASQGIRNALGWYQHKPGKAPKVLIYAASRLQSGVPSRFSGSGSGTDFTLTISSLQPEDFATYYCLQDFNYPWTFGHGTKVEIK
Turning to B1, the concentration for a half-maximal effect (EC50) with FFL_001 [1] is 17.9 µg/mL; with RPM, 14.8 µg/mL.

B2: 13A8 (Fab, V domains shown)
VH: B1 VH
VL: B1 VL
B2 came in with a Kd with FFL_001 [2] of 0.2 nM.

B3: 3J20 (antibody, V domains shown)
VH: EVQLVESGGGLVQPGGSLRLSCAASGFTFSSFTMNWVRQAPGKGLQWVSTISGSGGLTYYADSVKGRFTISRDNSKNTLSLQMNSLRAEDTAVYYCARDLEFTVTSYGGYYFEYWGQGTLVTVSS
VL: not shown
Regarding B3, the EC50 is 11.1 µg/mL with FFL_001 [1] and 12.7 µg/mL with RPM.

B4: 3J20 (Fab, V domains shown)
VH: B3 VH
VL: not shown
In the experiment with FFL_001 [2], B4 registered a Kd of 1.05 nM.

B5: 14N4 (antibody, V domains shown)
VH: QVQLVESGGGLIQPGGSLRLSCAVSGFTVSSKYMTWVRQAPGKGLEWVSVIYGGGSTYYADSVVGRFTISRDNSKNTLYLQMNSLRAEDTAVYYCASRLGVRATTGDLDYWGQGTLVTVSS
VL: QIVMTQSPSTLSASVGDRVTITCRASQSISSWLAWYQQKPGKAPKLLIYDASSLESGVPSRFSGSGSGTEFTLTISSLQPDDFATYYCQQYNTYSWWTFGQGTKVEIK
With B5, the EC50 is 19.3 µg/mL in the experiment with FFL_001 [1] and 7.4 µg/mL with RPM.

B6: 14N4 (Fab, V domains shown)
VH: B5 VH
VL: B5 VL
On to B6, for which the Kd in the experiment with FFL_001 [2] worked out at 1.37 nM.

B7: Motavizumab (antibody, V domains shown)
VH: QVTLRESGPALVKPTQTLTLTCTFSGFSLSTAGMSVGWIRQPPGKALEWLADIWWDDKKHYNPSLKDRLTISKDTSKNQVVLKVTNMDPADTATYYCARDMIFNFYFDVWGQGTTVTVSS
VL: DIQMTQSPSTLSASVGDRVTITCSASSRVGYMHWYQQKPGKAPKLLIYDTSKLASGVPSRFSGSGSGTEFTLTISSLQPDDFATYYCFQGSGYPFTFGGGTKVEIK
As for B7, the values for the EC50 with FFL_001 [1] and with RPM were 10.4 µg/mL and 16.7 µg/mL, respectively.

B8: Palivizumab (antibody, V domains shown)
VH: B7 VH with A32S, H60D, D67S, D100S, F103T, F105W, Q112A
VL: B7 VL with S24K, A25C, S26Q, S27L, R28S, V103L
As to B8, the EC50 in the experiment with FFL_001 [1] amounted to 49 µg/mL; with RPM, 26.1 µg/mL.

The record behind these values is patent US20190240316A1 (published 2019).
